First the molecules themselves.
B1: Nse2 (Mms21), subunit of the S. cerevisiae Smc5/6 holo-complex (natural protein)
chain: MALNDNPIPKSVPLHPKSGKYFHNLHARDLSNIYQQCYKQIDETINQLVDSTSPSTIGIEEQVADITSTYKLLSTYESESNSFDEHIKDLKKNFKQSSDACPQIDLSTWDKYRTGELTAPKLSELYLNMPTPEPATMVNNTDTLKILKVLPYIWNDPTCVIPDLQNPADEDDLQIEGGKIELTCPITCKPYEAPLISRKCNHVFDRDGIQNYLQGYTTRDCPQAACSQVVSMRDFVRDPIMELRCKIAKMKESQEQDKRSSQAIDVL
notes: Nse2 (Mms21), Saccharomyces cerevisiae; the model holds amino acids 1-267; source: recombinant, expressed in insect cells, purified as holo-complex (Superose 6 SEC), BS3-crosslinked
B2: Nse4 with HaloTag, kleisin subunit of the S. cerevisiae Smc5/6 holo-complex (natural protein)
chain: MSSTVISRKRRNSTVTEPDSSGETRKQKKSRSDEKSSSSKDGDPQLEFKVLQGYRDLESEMHKGRAQVTRTGDIGVAMDNLNAVDSLFNKVIGIKNNGLFAHDARAMVSISELAQISVRNLKFDDSRSMVNLENIVNSLKRYMLKEHFKLNNIAENRNDLTLAADEQSAADQQEESDGDIDRTPDDNHTDKATSSFKATSMRHSYLQQFSHYNEFSQFNWFRIGALYNTISKNAPITDHLMGPLSIEKKPRVLTQRRRNNDQVGEKITAEKITQHSLNSTQQETTPEQVKKCFKKLSKKLGPEGSINLFKFIIDPNSFSRSIENLFYTSFLIKEGKLLMEHDEEGLPTIKIKQSISHTDSRSKEIERQRRRAAHQNHIIFQMDMPTWRKLIKKYNITSPFLD
notes: Nse4, Saccharomyces cerevisiae; the model holds amino acids 40-124, 184-202, 213-245, 283-402; Density of the HaloTag attached to Nse4 was removed by particle subtraction, so the tag was on the protein on the grid; its end is told only for the yeast strain (C-terminal), not for the recombinant protein; source: recombinant, expressed in insect cells, purified as holo-complex (Superose 6 SEC), …
B3: Smc5 (Walker B mutant E1015Q), subunit of the S. cerevisiae Smc5/6 holo-complex (natural protein)
chain: MTSLIDLGRYVERTHHGEDTEPRSKRVKIAKPDLSSFQPGSIIKIRLQDFVTYTLTEFNLSPSLNMIIGPNGSGKSTFVCAVCLGLAGKPEYIGRSKKVEDFIKNGQDVSKIEITLKNSPNVTDIEYIDARDETIKITRIITRSKRRSDYLINDYQVSESVVKTLVAQLNIQLDNLCQFLSQERVEEFARLKSVKLLVETIRSIDASLLDVLDELRELQGNEQSLQKDLDFKKAKIVHLRQESDKLRKSVESLRDFQNKKGEIELHSQLLPYVKVKDHKEKLNIYKEEYERAKANLRAILKDKKPFANTKKTLENQVEELTEKCSLKTDEFLKAKEKINEIFEKLNTIRDEVIKKKNQNEYYRGRTKKLQATIISTKEDFLRSQEILAQTHLPEKSVFEDIDIKRKEIINKEGEIRDLISEIDAKANAINHEMRSIQRQAESKTKSLTTTDKIGILNQDQDLKEVRDAVLMVREHPEMKDKILEPPIMTVSAINAQFAAYLAQCVDYNTSKALTVVDSDSYKLFANPILDKFKVNLRELSSADTTPPVPAETVRDLGFEGYLSDFITGDKRVMKMLCQTSKIHTIPVSRRELTPAQIKKLITPRPNGKILFKRIIHGNRLVDIKQSAYGSKQVFPTDVSIKQTNFYQGSIMSNEQKIRIENEIINLKNEYNDRKSTLDALSNQKSGYRHELSELASKNDDINREAHQLNEIRKKYTMRKSTIETLREKLDQLKREARKDVSQKIKDIDDQIQQLLLKQRHLLSKMASSMKSLKNCQKELISTQILQFEAQNMDVSMNDVIGFFNEREADLKSQYEDKKKFVKEMRDTPEFQSWMREIRSYDQDTKEKLNKVAEKYEEEGNFNLSFVQDVLDKLESEIAMVNHDESAVTILDQVTAELRELEHTVPQQSKDLETIKAKLKEDHAVLEPKLDDIVSKISARFARLFNNVGSAGAVRLEKPKDYAEWKIEIMVKFRDNAPLKKLDSHTQSGGERAVSTVLYMIALQEFTSAPFRVVDQINQGMDSRNERIVHKAMVENACAENTSQYFLITPKLLTGLHYHEKMRIHCVMAGSWIPNPSEDPKMIHFGETSNYSFD
notes: Smc5, Saccharomyces cerevisiae; the model holds amino acids 35-390, 394-882, 884-1068; The complex was crosslinked with BS3; also called κ-SMC; source: recombinant, expressed in insect cells, purified as holo-complex (Superose 6 SEC), BS3-crosslinked
B4: Nse1, subunit of the S. cerevisiae Smc5/6 holo-complex (natural protein)
chain: MEVHEEQVSAPVTGDATAKYLLQYILSARGICHENALILALMRLETDASTLNTEWSIQQWVDKLNDYINAINVKLNLLGYKIIRINHGIGRNAVTLKAKQNFESFEDNTAIRAHNNDYAVLQSIVLPESNRFFVYVNLASTEETKLATRFNQNEIEFMKWAIEQFMISGETIVEGPALETSIIVKEVNRILVAATGDSNLAKWRKFSTFTVGSTNLFQFQELTATDIEDLLLRLCELKWFYRTQEGKFGIDLRCIAELEEYLTSMYNLNTCQNCHKLAIQGVRCGNESCREENEETGENSLSQIWHVDCFKHYITHVSKNCDRCGSSLITEGVYVI
notes: Nse1, Saccharomyces cerevisiae; the model holds amino acids 11-336; also called KITE subunit; source: recombinant, expressed in insect cells, purified as holo-complex (Superose 6 SEC), BS3-crosslinked

Common to all, as to experiment: cryo-EM structure; BS3-crosslinked six-subunit holo-complex, apo / non-liganded; fractions from Superose 6 diluted to 20 mM HEPES.NaOH pH 7.5, 50 mM NaCl, 0.5 mM TCEP, 0.1 mg/ml; maps at 10.8 Å (holo-complex), 8.53 Å (hinge/arm) and 6.5 Å (head-only); pseudo-atomic model built from homology and AlphaFold models
Common to all, as to conditions: both partners purified

The target of assay [1] is B3.
In assay [2] the target is T1, Smc6 (Walker B mutant E1048Q), subunit of the S. cerevisiae Smc5/6 holo-complex (S. cerevisiae, UniProt Q12749 1-1114, E1048Q).
T1 construct: Smc6, Saccharomyces cerevisiae; the model holds amino acids 74-213, 215-290, 292-370, 387-431, 436-805, 814-919, 922-1104; The complex was crosslinked with BS3; also called ν-SMC; source: recombinant, expressed in insect cells, purified as holo-complex (Superose 6 SEC), BS3-crosslinked
T1 sequence: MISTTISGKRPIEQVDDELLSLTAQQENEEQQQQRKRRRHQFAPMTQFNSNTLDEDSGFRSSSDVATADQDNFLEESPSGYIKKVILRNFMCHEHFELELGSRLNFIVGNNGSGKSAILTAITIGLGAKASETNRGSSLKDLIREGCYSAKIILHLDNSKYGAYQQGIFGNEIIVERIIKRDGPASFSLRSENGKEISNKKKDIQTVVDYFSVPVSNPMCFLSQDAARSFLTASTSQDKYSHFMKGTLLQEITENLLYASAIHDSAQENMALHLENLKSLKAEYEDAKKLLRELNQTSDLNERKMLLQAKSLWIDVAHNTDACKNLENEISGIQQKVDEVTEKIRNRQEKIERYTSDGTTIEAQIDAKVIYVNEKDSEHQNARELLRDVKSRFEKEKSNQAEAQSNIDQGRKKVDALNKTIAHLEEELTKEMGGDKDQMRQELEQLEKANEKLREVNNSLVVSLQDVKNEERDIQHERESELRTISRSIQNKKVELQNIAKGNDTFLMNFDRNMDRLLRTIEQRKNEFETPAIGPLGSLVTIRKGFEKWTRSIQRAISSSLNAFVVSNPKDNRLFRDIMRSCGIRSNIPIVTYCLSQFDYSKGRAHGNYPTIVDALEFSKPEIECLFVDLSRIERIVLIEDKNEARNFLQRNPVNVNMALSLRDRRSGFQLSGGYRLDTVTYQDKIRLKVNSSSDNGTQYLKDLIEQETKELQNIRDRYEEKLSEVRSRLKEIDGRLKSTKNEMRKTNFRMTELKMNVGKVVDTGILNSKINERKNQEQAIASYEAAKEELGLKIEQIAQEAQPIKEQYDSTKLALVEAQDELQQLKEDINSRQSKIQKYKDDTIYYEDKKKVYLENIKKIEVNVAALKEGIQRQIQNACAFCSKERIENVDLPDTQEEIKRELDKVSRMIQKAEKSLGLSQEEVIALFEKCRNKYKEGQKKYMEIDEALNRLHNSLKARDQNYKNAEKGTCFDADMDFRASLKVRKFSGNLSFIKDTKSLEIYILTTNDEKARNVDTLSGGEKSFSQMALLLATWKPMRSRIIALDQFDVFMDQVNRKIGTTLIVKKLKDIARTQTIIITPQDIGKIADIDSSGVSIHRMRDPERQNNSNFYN

In assay [3] the target is B2.

For the molecule B1, the binding result in assay [1] and in assay [2] was “binds” each time.
For B2, the binding result in assay [1] and in assay [2] was “binds” in each case.
Regarding B3, the binding result in assay [2] was “binds”.
As to B4, the binding result in assay [1] and in assay [3] was “binds” in each case.

These data come from PMC9458440, “Cryo-EM structure of the Smc5/6 holo-complex” (Nucleic Acids Research, 2022).
